In the RNAGym collection of RNA variant scans (doi:10.1093/molbev/msab373):

B1: Azoarcus group I ribozyme (parent)
chain: GUGCCUUGCGCCGGGAAACCACGCAAGGGAUGGUGUCAAAUUCGGCGAAACCUAAGCGCCCGCCCGGGCGUAUGGCAACGCCGAGCCAAGCUUCGGCGCCUGCGCCGAUGAAGGUGUAGAGACUAGACGGCACCCACCUAAGGCAAACGCUAUGGUGAAGGCAUAGUCCAGGGAGUGGCGAAAGUCACACAAACCGG

Variants of: B1
Assay: reverse-splicing fitness (ratio to wild type); higher = more active; in vitro selection; Mg2+ level not given
Procedure, shortened: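 An in vitro group I ribozyme library with randomized positions was T7-transcribed and gel-purified. In triplicate, 10 pmol RNA in EPPS pH 7.5 was reacted with 50 pmoles of a 30-nt RNA substrate for 1 h at 37 °C across several added MgCl2 levels (1–48 mM), then stopped with EDTA. Products were reverse transcribed from a substrate-complementary primer, PCR-amplified and sequenced (HiSeq 4000). Fitness is a variant's read proportion after selection over that before, normalised to wild type.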

| Variant | reverse-splicing fitness |
| --- | --- |
| A111C A145C C150U C169A U176G | 0.00708 |
| A111C A120U A145C U176A | 0.244 |
| A111C A120U A145C U176C | 0.17 |
| A111C A120U A145C U176G | 0.0856 |
| A111C A120U A145U C150G C169G U176C | 0.00291 |
| A111C A120U A145U C150G C169G U176A | 0.00267 |
| A111C A120U A145U C150G C169G U176G | 0.00233 |
| A111C A120U A145G C150A C169A U176C | 0.00438 |
| A111C A120U A145G C150A C169A U176A | 0.0071 |
| A111C A120U A145G C150A C169A U176G | 0.00318 |
| A111C A120U C169A U176G | 0.00232 |
| A111C A120U C169A U176C | 0.00293 |
| A111C A120U C169A U176A | 0.00319 |
| A111C A145C C150G | 0.246 |
| A111C A145C C150U | 0.554 |
| A111C A145C C150A | 0.15 |
| A111C A120U A145G C150G C169G U176A | 0.00935 |
| A111C A120U A145G C150G C169G U176G | 0.00386 |
| A111C A120U A145G C150G C169G U176C | 0.00876 |
| A111C A120U A145U U176C | 0.271 |
| A111C A120U A145U U176A | 0.221 |

| Variant | reverse-splicing fitness |
| --- | --- |
| A111C A120U A145U U176G | 0.0748 |
| A111C A120U A145U C150A C169A | 0.00263 |
| A111C A120U A145U C150A C169U | 0.00653 |
| A111C A120U A145U C150A C169G | 0.00604 |
| A111C A120U A145U C169A U176A | 0.00268 |
| A111C A120U A145U C169A U176G | 0.00217 |
| A111C A120U A145U C169A U176C | 0.00217 |
| A111C A120U U176C | 0.257 |
| A111C A120U U176A | 0.22 |
| A111C A120U U176G | 0.0937 |
| A111C A120U A145U C169U | 0.0751 |
| A111C A120U A145U C169A | 0.00546 |
| A111C A120U A145U C169G | 0.0574 |
| A111C A120U C150A C169A U176C | 0.00383 |
| A111C A120U C150A C169A U176A | 0.00602 |
| A111C A120U C150A C169A U176G | 0.00239 |
| A111C A120U C150A C169G U176G | 0.00245 |
| A111C A120U C150A C169G U176A | 0.00448 |
| A111C A120U C150A C169G U176C | 0.00434 |
| A111C A145G C150A C169A U176G | 0.00852 |
| A111C A145G C150A C169A U176A | 0.0169 |

| Variant | reverse-splicing fitness |
| --- | --- |
| A111C A145G C150A C169A U176C | 0.0182 |
| A111C A120U A145G C169U U176C | 0.0232 |
| A111C A120U A145G C169U U176G | 0.00322 |
| A111C A120U A145G C169U U176A | 0.0138 |
| A111C A120U A145C C150U C169A U176G | 0.00188 |
| A111C A120U A145C C150U C169A U176C | 0.00249 |
| A111C A120U A145C C150U C169A U176A | 0.00274 |
| A111C A120U A145U C169G U176C | 0.00935 |
| A111C A120U A145U C169G U176A | 0.00434 |
| A111C A120U A145U C169G U176G | 0.00209 |
| A111C A120U A145C C150A U176C | 0.0101 |
| A111C A120U A145C C150A U176A | 0.016 |
| A111C A120U A145C C150A U176G | 0.00735 |
| A111C A120U C150G U176G | 0.00356 |
| A111C A120U C150G U176C | 0.0217 |
| A111C A120U C150G U176A | 0.0127 |
| A111C A120U A145C C150G C169A U176C | 0.00297 |
| A111C A120U A145C C150G C169A U176G | 0.00224 |
| A111C A120U A145C C150G C169A U176A | 0.00246 |
| A111C A120U C150A C169U | 0.00953 |
| A111C A120U C150A C169A | 0.00557 |

| Variant | reverse-splicing fitness |
| --- | --- |
| A111C A120U C150A C169G | 0.00691 |
| A111C A120U A145C C150U U176G | 0.0246 |
| A111C A120U A145C C150U U176A | 0.0649 |
| A111C A120U A145C C150U U176C | 0.0487 |
| A111C A120U A145U C150U C169G U176G | 0.00261 |
| A111C A120U A145U C150U C169G U176A | 0.00509 |
| A111C A120U A145U C150U C169G U176C | 0.00885 |
| A111C A120U C150G C169A | 0.00675 |
| A111C A120U C150G C169G | 0.00853 |
| A111C A120U C150G C169U | 0.00955 |
| A111C A120U C169U U176G | 0.00263 |
| A111C A120U C169U U176C | 0.0214 |
| A111C A120U C169U U176A | 0.0143 |
| A111C A120U A145G C150G C169A U176A | 0.0118 |
| A111C A120U A145G C150G C169A U176G | 0.00554 |
| A111C A120U A145G C150G C169A U176C | 0.009 |
| A111C A120U C150A U176A | 0.0268 |
| A111C A120U C150A U176G | 0.0153 |
| A111C A120U C150A U176C | 0.0376 |
| A111C A120U A145G C169A U176A | 0.00375 |
